Results reported in patent publication US20240301385, “DNA MODIFYING ENZYMES AND ACTIVE FRAGMENTS AND VARIANTS THEREOF AND METHODS OF USE” (LIFEEDIT THERAPEUTICS, INC., published 2024).

T1: APG09980.1-L16-nAPG07433.1 (truncated deaminase) (synthetic)
T1 chain: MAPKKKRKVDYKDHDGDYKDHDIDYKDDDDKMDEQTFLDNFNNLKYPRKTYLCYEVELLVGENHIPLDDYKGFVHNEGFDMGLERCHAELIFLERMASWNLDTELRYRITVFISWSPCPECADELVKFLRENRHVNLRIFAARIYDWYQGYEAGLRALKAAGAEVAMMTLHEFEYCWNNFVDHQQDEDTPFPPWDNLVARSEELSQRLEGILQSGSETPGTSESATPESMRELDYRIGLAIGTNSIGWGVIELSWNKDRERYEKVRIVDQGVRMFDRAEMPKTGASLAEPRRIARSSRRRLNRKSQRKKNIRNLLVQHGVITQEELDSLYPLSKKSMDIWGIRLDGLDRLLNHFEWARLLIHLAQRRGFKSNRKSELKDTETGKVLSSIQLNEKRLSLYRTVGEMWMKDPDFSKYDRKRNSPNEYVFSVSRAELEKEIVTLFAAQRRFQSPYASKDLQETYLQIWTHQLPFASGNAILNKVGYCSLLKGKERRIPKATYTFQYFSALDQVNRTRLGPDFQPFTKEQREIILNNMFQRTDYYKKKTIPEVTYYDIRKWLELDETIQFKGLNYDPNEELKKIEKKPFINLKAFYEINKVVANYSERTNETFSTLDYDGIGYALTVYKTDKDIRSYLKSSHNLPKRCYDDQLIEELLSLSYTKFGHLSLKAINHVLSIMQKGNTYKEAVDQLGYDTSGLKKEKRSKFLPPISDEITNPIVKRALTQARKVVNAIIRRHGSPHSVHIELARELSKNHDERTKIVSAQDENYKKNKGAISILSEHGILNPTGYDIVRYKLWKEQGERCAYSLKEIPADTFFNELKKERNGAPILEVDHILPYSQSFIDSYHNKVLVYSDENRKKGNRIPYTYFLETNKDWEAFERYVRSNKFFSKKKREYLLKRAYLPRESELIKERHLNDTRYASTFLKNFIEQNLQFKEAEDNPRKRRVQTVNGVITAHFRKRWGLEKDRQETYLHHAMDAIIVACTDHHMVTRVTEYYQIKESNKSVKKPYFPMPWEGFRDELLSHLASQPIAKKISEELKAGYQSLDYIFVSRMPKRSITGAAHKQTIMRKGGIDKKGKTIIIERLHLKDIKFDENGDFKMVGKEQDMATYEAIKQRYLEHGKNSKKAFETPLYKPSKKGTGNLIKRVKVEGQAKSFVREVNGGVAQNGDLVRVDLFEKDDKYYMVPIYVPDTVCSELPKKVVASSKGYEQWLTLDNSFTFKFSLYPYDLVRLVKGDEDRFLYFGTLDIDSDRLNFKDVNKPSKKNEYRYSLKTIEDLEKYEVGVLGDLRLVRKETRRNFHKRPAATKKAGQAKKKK


Experiments:
[1] = target: APG05840.1-L16-nAPG07433.1 (truncated deaminase) (synthetic); experiment: cell_activity; HEK293FT; PAM SEQ 152; details: tags: SV40 NLS, 3xFLAG N-term; nucleoplasmin NLS C-term
Procedure: (§1) 500 ng of plasmid comprising an expression cassette comprising a coding sequence for each fusion protein shown in Table 3 and 500 ng of plasmid comprising an expression cassette encoding an sgRNA shown in Table 4 were co-transfected into HEK293FT cells at 75-90% confluency in 24-well plates using Lipofectamine 2000 reagent (Life Technologies). Cells were then incubated at […] for 72 h. Following incubation, genomic DNA was then extracted using NucleoSpin 96 Tissue (Macherey-Nagel) following the manufacturer's protocol. The genomic region flanking the targeted genomic site was PCR amplified using the primers in Table 4 and products were purified using ZR-96 DNA Clean and Concentrator (Zymo Research) following the manufacturer's protocol. The purified PCR products were then sent for Next Generation Sequencing on Illumina MiSeq (2×250). Results were analyzed for INDEL formation or introduction of % specific cytosine mutations.
(§2) The position of each nucleotide in the target sequence was determined. “C17” indicates, for example, a cytosine at position 17 of the target sequence. The position of each nucleotide in the target sequence was determined by numbering the first nucleotide in the target sequence closest to the PAM as position 1, and the position number increases in the 3′ direction away from the PAM sequence.

[2] = target: T1, APG09980.1-L16-nAPG07433.1 (truncated …); experiment: cell_activity; HEK293FT; PAM SEQ 152; details: tags: SV40 NLS, 3xFLAG N-term; nucleoplasmin NLS C-term
Procedure: as §1, §2

Binder	activity [1] [% mutated reads]	activity [2] [% mutated reads]
SGN000169 sgRNA ; SGN000169 target (ssRNA ; dsDNA) RNA: CACAUCUCGAGCAAGACGUUGUCAUAGUUCCAUUAAAGCCAAAAGUGGCUUUGAUGUUUCUAUGAUAAGGGUUUCGACCCGUGGCGUCGGGGAUCGCCUGCCCAUUGAAAUGGGCUUCUCCCCAUUUAUU DNA 1: CACATCTCGAGCAAGACGTT DNA 2: AACGTCTTGCTCGAGATGTG	30.2	24.1
SGN000929 sgRNA ; SGN000929 target (ssRNA ; dsDNA) RNA: AUCUGGAGGGAACUUACAGCAUAUGGUCAUAGUUCCAUGAAAGCCAAAAGUGGCUUUGAUGUUUCUAUGAUAAGGGUUUCGGCCCGUGGCGUCGGGGAUCGCCUGCCCAUUCCGAUGGGCUUCUCCCCAUUUAUU DNA 1: ATCTGGAGGGAACTTACAGCATATG DNA 2: CATATGCTGTAAGTTCCCTCCAGAT	22.3	25.9
SGN001101 sgRNA ; SGN001101 target (ssRNA ; dsDNA) RNA: AUAUUUUCUUUAAUGGUGCCAGGCAGUCAUAGUUCCAUUAAAGCCAAAAGUGGCUUUGAUGUUUCUAUGAUAAGGGUUUCGACCCGUGGCGUCGGGGAUCGCCUGCCCAUUGAAAUGGGCUUCUCCCCAU DNA 1: ATATTTTCTTTAATGGTGCCAGGCA DNA 2: TGCCTGGCACCATTAAAGAAAATAT	23.8	30.5
